# In the DeepSol protein solubility set:
# Experiment: soluble on expression in E. coli; label from the status in PepcDB or PDB records
row,Sequence,soluble on expression in E. coli
1,MAVTAQAARRKERVLCLFDVDGTLTPARQKIDPEVAAFLQKLRSRVQIGVVGGSDYCKIAEQLGDGDEVIEKFDYVFAENGTVQYKHGRLLSKQTIQNHLGEELLQDLINFCLSYMALLRLPKKRGTFIEFRNGMLNISPIGRSCTLEERIEFSELDKKEKIREKFVEALKTEFAGKGLRFSRGGMISFDVFPEGWDKRYCLDSLDQDSFDTIHFFGNETSPGGNDFEIFADPRTVGHSVVSPQDTVQRCREIFFPETAHEA,soluble
2,MGHHHHHHSHMASRVRVTILFATETGKSEALAWDLGALFSCAFNPKVVCMDKYRLSCLEEERLLLVVTSTFGNGDCPGNGEKLKKSLFMLKELNNKFRYAVFGLGSSMYPRFCAFAHDIDQKLSHLGASQLTPMGEGDELSGQEDAFRSWAVQTFKAACETF,not soluble
3,AGKPVLHYFNARGRMECIRWLLAAAGVEFEEKFIQSPEDLEKLKKDGNLMFDQVPMVEIDGMKLAQTRAILNYIATKYDLYGKDMKERALIDMYSEGILDLTEMIGQLVLCPPDQREAKTALAKDRTKNRYLPAFEKVLKSHGQDYLVGNRLTRVDIHLLEVLLYVEEFDASLLTPFPLLKAFKSRISSLPNVKKFLQPGSQRKPPMDAKQIQEARKAFKIQ,soluble
4,GPGSMQFTVEQIRSVRNNYLEPPYPGFSLDEVVRRRRLTQTKLVRGENAWVAKGTAQTTEEWVQRLLHGTLNKLTEENKDIMIDKLLTKELFATEDIMNMVVNIIFKKALDEPENSKLYAGVCHSLALYEAKVLRDGHKGERPQSQLRDAIISTAQHEFRTLSKELSKMEDKSEEELEYERSNVMRRKRSNMRFIGELYLCTALTHSTMFTVMDLTMRCSDKTGFPSSENIELLAALLNTIGDRLDKNHKKTLDPYFTSLENFNKKSDCPYPPRIRFKIMDLLDLRKRGWGLKPKPVKAALPPSHGKDKKYATAPPPKKGGRDQGSAAAASKSWRDAATTKTGTAAAPAPSADKGLNGRGTSSAAPAANTAALSSSSASTAAATAPAGASFRDEASPQVPLVKFELRVASMFQEWVADRTNDVILHWVDQFNTCDRFFESESELCVAVAQEVIHSACTTTRKDAQREAFSFLVVGLYMIDTEVFDGFASALASAIEDGLLEDVPKFGERFMSMLRLTSTEQETRADVYFDAANVLRLTYNRLESPDDSAVDTLMSFWDRVPLPSTDEENMIRMDLDVVYSLCNPEGVQDGLEKLLSRIIHSMLQMQLMDAEVLDEFLCLDVEDGLCAKVIADYKERFPK,soluble
5,MSSPYILVLYYSRHGATAEMARQIARGVEQGGFEARVRTVPAVSTECEAVAPDIPAEGALYATLEDLKNCAGLALGSPTRFGNMASPLKYFLDGTSSLWLTGSLVGKPAAVFTSTASLHGGQETTQLSMLLPLLHHGMLVLGIPYSEPALLETRGGGTPYGASHFAGADGKRSLDEHELTLCRALGKRLAETAGKLGS,soluble
6,MPCQKKSNPTELHISTGREIVQRNFVFRNTTGKDFLLKLHATNEAVTFPTEVFRFPPLAHRAIQFRVNSSKLSQWDKMNLLIKGYVLPIYAKSLKQFIDQKKTAGTKEQEAFSLSVKFTDQFSAPQTVINLPGYATCIESTDYPVDVEELDTTTAVNIERDVSTAVPIGSMMGFVEEYKRRQLNKGCWFSNYICGTEKQPEKQSMRSSRRSSRSSNHSAKSSKACRIQANKKNKSDVNVCLEATPCGGSTIQA,not soluble
7,NQHLTILRNVSDRKRMEKELRESELKFRKVFNGSMDGNVLFDNQYRIIDANPLASHILGLSHEEIKQHSLLDIISAYEIENLASPARQINFDEMDNEIPFLLSSGDNRKLEFSFKRNIIQ,not soluble
8,MIITTTPTVENRQIIEYKGLVFGEVVAGANIIRDFFASITDMIGGRSGVYEDKLNVARQEALVELQKQARNIGANAVIGVSIQYQSMGKKDMFIIVATGTAVVIGLEHHHHHH,not soluble
9,MGSDKIHHHHHHMREEWLFSRYLNRKRVQRAASLGAGRAETEIALLELGAVEHFDLFDVSSVGIEYAKSIAEEKGFGHKVTCHVGPIGCAELNENTYDLITFVASLHHMEPLAETLERANRALTQHGIIWCANEYIGPDRFDYPVAHAAIAKSFFQQIPPGLRNHWHRELQFPTPQEVAEVDPTEAPCSSKIEPTMRDMFPALEIMPLYGAFAFMVFWGLNHDALYETPEGTELTRFILGMDKALTDAGILPTYFAHIIARKNNAPRQQIHRPGRHSSALLYRYAQRAASILRHLKIR,not soluble
10,MGRKNSPSANKELNELIAQYETARAENRQLYLDGDQLADIADQYAAERKFNEAQEVITYGLHLHPDSTDLLVEQAYLYLDTGKIPLAKKVVESITDEYDTDVKMLKAELMLNEGQLENARNVLDTIEDADELETIINIVYLYMDMGYPEAAKEWLDKGAPRHGKKEDFMAVMADYLTGTNQLEAASTFYNQLIDIDPYNASYWVGLAKCRFAAEDCEKAIEACDFALAADDKCGEAYAYRGHSYFYLNNSDAAIEDYKKAIKYKALPPEMGYMFLGLTYSNKEAWKEADDYYQRVIDRFIEEGLGNSPLLIDTYTNKAVAASRLGKYEEAHQLCKKAIAIQPDDPAIYLAEGKLYIQENQKKKAVKSFDKALTMEPSAEMWYMVASAYSDAEYLYQAKLCFQEAYRIDPNYADIAEKLSVLSLMHNEIDDFFKYNNESEHPISEDIILELLSRPNQTEEGEQMLREVWERMKKEKGNN,not soluble
11,MSEKPAESAAAVADSATTTAPQSGKPETALPALIDTQATAETRALYRNLAKLRYKHLLFGHEDSLAYGVHWEGDMDRSDVRDVTGANPAVYGWELGGLELGHTANLDAVNFEKMQHWIKAGYSRGGVITISWHVFNPVSGGNSWDKTPAVHELIPGGARHATLKAYLDTFVAFNEGLADVDAQGNKHYPPIIFRPWHEHNGDWFWWGKGHASEQDYIALWRFTVHYLRDEKKLRNLIYAYSPDRSRIDMANFEAGYLYGYPGDAYVDIIGLDNYWDVGHEANTASADEQKAALTASLKQLVQIARSKGKIAALTETGNNRLTIDNFWTERLLGPISADADASEIAYVMVWRNANLAREKSEQFFAPFPGQATADDFKRFYQSEVVLFEDELPPLYR,soluble
12,SETPEVPVGSLIDFGPEAPTSSPLEAPPPVLQDGDGSLGDGASESETTESADSENDMGESPSHPSWDQDRRSSSNESFSSNQSTESTQDEETLALRDFMRGYVEKIFSGGEDLDQEEKAKFGEYCSSENGKGREWFARYVSAQRCNSKCVSEATFYRLVQSFAVVLFECHQMDDFGPAKNLMTMCFTYYHIGKPQLLPPESREKPAGSIDSYLKSANSWLAEKKDIAERLLKNTSARTENVKGFFGGLETKLKGPLARRNEEDENKPQEKRPRAVTAYSPEDEKKGEKIYLYTHLKQQPIW,soluble
13,MRGGVESTSTACATGLHCIGNSFRSIRYGDSRRALAGAVECALNPIALAGFDRMRALARGDQPNISRPFDKKRAGFVMSEGVGLVFMERLEDAQARGAQILAEVVGYGISSDCYHISTPDPSAIGAVLSMNRAIGNAHLEPKDIGYVNAHATSTPNGDSVEAEAVRQVFPEQNIAVSSVKGHIGHLLGAAGSVEAIATIFAMNDDVLPANRNLEETDEGNGLNLLRENQKWSDVSGNKSRISICNSFGFGATNASLILKQF,not soluble
14,MSLQIKVSQFGLNLAHAWATAASSAKKSRIVTFVKLTSSDGAFGFGESAPSSRYGETLETVTAFLAKIDPKQLSFDDVPGSMAYLDKLSSGDFAAKAAVNIALWDGAGKKARKPIYDLLGLGFTENKHITSYTIGIDAPEIIRQKVLEAEQYPVLKLKVGDKNDRETMAILRSIAPAKTVRIDGNEGWKTKEEALKNIEWFAQDKNIEFVEQPMPADSNPKDLAWLKERSPLPLYADESFFAVADVSLCVDCFHGVNVKLVKTAGISGAYEALQAAKKAGLKRMIGCMVESSVLIGAGAHLAELADHLDIDTNLLITNDPFQGTTAEKGIISFAKASEPCGLRVKATPSFVMEGHHHHHH,soluble
15,MSDTPSKKQKRRATIFVTGPQSKKTIFEGEEIKEEGNQTTLQDLAIARQRLHNELAVVNTTSGIEILMQIVMDELEVVRHRLRENGQRMRNFFGDGAVQIRAILIRIFSKSISSRNMLEYKKDAKVILNELCDQNITYKMPRYTLNDMEEILLTDDLEDGVIQRRSEKWECLPERQKPMFDEDEDAFCEFRKMNVPMSMTFDDDDEDRLSMPSTRTGVTALTTEDQMAAIQNQLAMLSKQLMCLQKSGVETKRASSRASSRRGGIIAKKASLEISSNSSSDVSEDEGKGPSVCSPSSSSKTSTASVQLAPMCMAPPPPPPPPLPKMSQKIPLSEIKSDNKLSTVTPSKPAEKKSSPKSLPPAETIVSNRPYLTDIAHGRSMLKKTVRSPGGSPACQVRHQKRPVSSFEAALRDRFRGFHGDASFSEQEENGEDDDLSATWDE,not soluble
16,MKLYIGNKNYSSWSLRAWLMVKKSGIKFDEILLQLDTDSFYQQLQSISPTLKVPTLVDGDITVWDSLSICEYINDSYLSGTAWPQDPKQKAKARSLACEMHSGFNALRNALPMNIRARRYVELSPAVQQDIARVDSIWSQQMAEFAPCQTQGTWLFGQWSIADMMFAPVVMRFFTYEIEVSQASRAYMEYIMSQPQMQAWITAAKAETEIVEADEAGVDR,not soluble
17,MGVYVLNVTDNSTFKGILNISDTVTAVNDQTFDSSKDLIDYVSSQKLGDSVKVTYEEDGQTKSAEGKIITLENLEHHHHHH,not soluble
18,MKTLNLLAPVSQLLKPLRRQSSSRVNALLINVPRVQLSKGKNKYLLMMIHMHGLTRFGRTIVRGSASKDHEEIFEEIQKEMDKIGICAKCLGGGFISNKEDKKVMKIYGCCKTFGEAPHGRTKDILLSWTKFQHYNIILPKKNLNAYQLEHHHHHH,not soluble
19,MGSSHHHHHHSSENLYFQGHMSDLPRISVAAPRLDGNERDYVLECMDTTWISSVGRFIVEFEKAFADYCGVKHAIACNNGTTALHLALVAMGIGPGDEVIVPSLTYIASANSVTYCGATPVLVDNDPRTFNLDAAKLEALITPRTKAIMPVHLYGQICDMDPILEVARRHNLLVIEDAAEAVGATYRGKKSGSLGDCATFSFFGNKIITTGEGGMITTNDDDLAAKMRLLRGQGMDPNRRYWFPIVGFNYRMTNIQAAIGLAQLERVDEHLAARERVVGWYEQKLARLGNRVTKPHVALTGRHVFWMYTVRLGEGLSTTRDQVIKDLDALGIESRPVFHPMHIMPPYAHLATDDLKIAEACGVDGLNLPTHAGLTEADIDRVIAALDQVLV,soluble
20,AMYEKPPVEKLIEELRQLKEKAYKGGGDERIQFQHSKGKLTARERLALLFDDGKFNEIMTFATTRATEFGLDKQRFYGDGVVTGWGKVDGRTVFAYAQDFTVLGGSLGETHANKIVRAYELALKVGAPVVGINDSGGARIQEGALSLEGYGAVFKMNVMASGVIPQITIMAGPAAGGAVYSPALTDFIIMIKGDAYYMFVTGPEITKVVLGEEVSFQDLGGAVVHATKSGVVHFMVDSEQEAINLTKRLLSYLPSNNMEEPPYIDTGDPADRDATGVEQIVPNDAAKPYNMREIIYKIVDNGEFLEVHKHWAQNIIVGFARIAGNVVGIVANNPEEFGGSIDIDAADKAARFIRFCDAFNIPLISLVDTPGYVPGTDQEYKGIIRHGAKMLYAFAEATVPKITVIVRKSYGGAHIAMSIKSLGADLVYAWPTAEIAVTGPEGAVRILYRKEIQQASNPDDVLKQRIAEYRKLFANPYWAAEKGLVDDVIEPKDTRRVIVAGLEMLKTKREYRYPKKHGNIPL,soluble
